Results on one molecule are retold here after patent publication US20080131434A1 (ONCOMED PHARMACEUTICALS, published 2008).

Test [1] deals with T1, NOTCH1 EGF 1-3 Fc fusion protein (human, UniProt P46531 19-139, limits assumed).
T1 construct: domain: EGF 1-3; Member of the nested deletion series; not shown: Fc
T1 sequence (looked up): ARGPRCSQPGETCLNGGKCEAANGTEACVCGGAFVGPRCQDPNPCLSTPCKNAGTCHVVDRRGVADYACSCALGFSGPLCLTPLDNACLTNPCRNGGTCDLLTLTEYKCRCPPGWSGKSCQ
The test is described as follows: Western blot, SDS-PAGE of Fc fusion proteins. From the text:
(§1) FIG. 1: Epitope mapping of anti-NOTCH1 monoclonal antibodies that bind to non-ligand binding domains.
(§2) To identify antibodies that recognize specific non-ligand binding regions of the NOTCH receptor extracellular domains, epitope mapping was preformed. In certain embodiments, mammalian expression plasmid vectors comprising a CMV promoter upstream of polynucleotides that encode fragments of the extracellular NOTCH1 domain as Fc fusion proteins were generated using standard recombinant DNA technology. These fusion proteins included a series of NOTCH1 fragments containing a nested series of deletions of EGF domains 1-5 or 10-15. Recombinant proteins were then expressed in cultured mammalian cells by transient transfection. Twenty-four to 48 hours following transfection, cells were harvested and cell lysate protein separated on non-reducing SDS-PAGE acrylamide gels for Western blotting using antibodies from mice immunized with NOTCH1 antigen. […] All antibody affinities were determined by BIAcore.

Test [2] concerns the target T2, NOTCH1 EGF 5 Fc fusion protein (human, UniProt P46531 178-220, limits assumed).
T2 construct: domain: EGF 5; Member of the nested deletion series; also called EGF 5 alone; not shown: Fc
T2 chain (looked up): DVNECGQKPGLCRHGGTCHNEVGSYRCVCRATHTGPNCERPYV
The test is described as follows: Western blot, SDS-PAGE of Fc fusion proteins.
Source text: as §1, §2

For test [3], the target named is T3, EGF1.
T3 construct: member of the EGF 1-5 deletion series; also called NOTCH1 EGF 1 Fc fusion protein (deletion series)
T3 chain: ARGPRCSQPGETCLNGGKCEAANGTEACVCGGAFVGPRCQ
The test is described as follows: Western blot of Fc fusion proteins of the antigen deletion series, non-reduced SDS-PAGE.
Source text: as §1, §2

Test [4] addresses T4, EGF1-2.
T4 construct: member of the EGF 1-5 deletion series; also called NOTCH1 EGF 1-2 Fc fusion protein (deletion series)
T4 chain: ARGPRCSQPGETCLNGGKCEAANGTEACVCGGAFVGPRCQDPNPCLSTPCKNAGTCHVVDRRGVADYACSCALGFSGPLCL
The test is described as above.
Source text: as §1, §2

The target of test [5] is T5, EGF2-5.
T5 construct: member of the EGF 1-5 deletion series; also called NOTCH1 EGF 2-5 Fc fusion protein (deletion series)
T5 chain: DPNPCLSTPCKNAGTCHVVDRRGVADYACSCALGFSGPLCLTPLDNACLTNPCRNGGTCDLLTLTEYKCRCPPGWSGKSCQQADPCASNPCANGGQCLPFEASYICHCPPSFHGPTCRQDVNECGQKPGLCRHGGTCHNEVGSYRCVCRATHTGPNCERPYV
The description is as above.
Source text: as §1, §2

Test [6] deals with T6, NOTCH1 (construct used in the assay not stated) (human, UniProt P46531 19-220, limits assumed).
T6 sequence (looked up): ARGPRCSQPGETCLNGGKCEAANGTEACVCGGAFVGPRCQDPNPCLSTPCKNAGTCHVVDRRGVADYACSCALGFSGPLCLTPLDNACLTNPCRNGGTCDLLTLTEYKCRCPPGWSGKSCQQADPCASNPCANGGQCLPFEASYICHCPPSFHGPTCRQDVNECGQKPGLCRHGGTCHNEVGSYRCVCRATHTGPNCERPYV
The test is described as follows: BIAcore; format and NOTCH1 construct not stated.

B1: anti-NOTCH1 monoclonal antibody 13M57 (antibody, mouse IgG1, kappa, V domains shown)
VH: EVNLVESGGDLVQPGGSLRLSCAASGFTFSSYTMSWVRQTPEKRLEWVAYIDYGGDFTSYSDAIRGRFTISRDNAKNTLYLQMSSLKSEDTAIYYCSRRRYDAMDYWGQGTSVIVSS
VL: DIQMTQSTSSLSASLGDRVTVSCSASQAISNYLNWYQQKPDGTLKLLIYYTTNLHSGVPSRFSGSGSGTDYSLTISNLEPEDIATYYCQQYSKFPWTFGGGTKLEIKR
notes: Murine hybridoma antibody raised against NOTCH1 EGF repeats 1-5; Conjugated to Alexa Fluor 647 for some FACS work; also called 13M30
Consider B1, for which the binding result in test [1] is “no binding”; in test [2], “no binding”; in test [3], “no binding”; in test [4], “no binding”; in test [5] it was “binds”. The molecule further yielded a Kd in test [6] of 0.2 nM.
